Each block holds one binder with its values, some of them ahead of it.
B5: TTC7A (natural protein)
chain: MAAKGAHGSYLKVESELERCRAEGHWDRMPELVRQLQTLSMPGGGGNRRGSPSAAFTFPDTDDFGKLLLAEALLEQCLKENHAKIKDSMPLLEKNEPKMSEAKNYLSSILNHGRLSPQYMCEAMLILGKLHYVEGSYRDAISMYARAGIDDMSMENKPLYQMRLLSEAFVIKGLSLERLPNSIASRFRLTEREEEVITCFERASWIAQVFLQELEKTTNNSTSRHLKGCHPLDYELTYFLEAALQSAYVKNLKKGNIVKGMRELREVLRTVETKATQNFKVMAAKHLAGVLLHSLSEECYWSPLSHPLPEFMGKEESSFATQALRKPHLYEGDNLYCPKDNIEEALLLLLISESMATRDVVLSRVPEQEEDRTVSLQNAAAIYDLLSITLGRRGQYVMLSECLERAMKFAFGEFHLWYQVALSMVACGKSAYAVSLLRECVKLRPSDPTVPLMAAKVCIGSLRWLEEAEHFAMMVISLGEEAGEFLPKGYLALGLTYSLQATDATLKSKQDELHRKALQTLERAQQLAPSDPQVILYVSLQLALVRQISSAMEQLQEALKVRKDDAHALHLLALLFSAQKHHQHALDVVNMAITEHPENFNLMFTKVKLEQVLKGPEEALVTCRQVLRLWQTLYSFSQLGGLEKDGSFGEGLTMKKQSGMHLTLPDAHDADSGSRRASSIAASRLEEAMSELTMPSSVLKQGPMQLWTTLEQIWLQAAELFMEQQHLKEAGFCIQEAAGLFPTSHSVLYMRGRLAEVKGNLEEAKQLYKEALTVNPDGVRIMHSLGLMLSRLGHKSLAQKVLRDAVERQSTCHEAWQGLGEVLQAQGQNEAAVDCFLTALELEASSPVLPFSIIPREL

How the values were obtained:
TTC7A = target: B5; test: SEC
[1] = target: TTC7B-FAM126A (1–308) heterodimer (UniProt Q86TV6;Q9BYI3); test: BLI
[2] = target: TTC7B-FAM126B (1–308) heterodimer (UniProt Q86TV6;Q8IXS8); test: BLI
[3] = target: TTC7A-FAM126A (1–308) heterodimer (UniProt Q9ULT0;Q9BYI3); test: BLI
[4] = target: TTC7A-FAM126B (1–308) heterodimer (UniProt Q9ULT0;Q8IXS8); test: BLI
[5] = target: T1, TTC7B (from the E. coli dimers) (UniProt Q86TV6 1-843); test: SEC
T1 sequence: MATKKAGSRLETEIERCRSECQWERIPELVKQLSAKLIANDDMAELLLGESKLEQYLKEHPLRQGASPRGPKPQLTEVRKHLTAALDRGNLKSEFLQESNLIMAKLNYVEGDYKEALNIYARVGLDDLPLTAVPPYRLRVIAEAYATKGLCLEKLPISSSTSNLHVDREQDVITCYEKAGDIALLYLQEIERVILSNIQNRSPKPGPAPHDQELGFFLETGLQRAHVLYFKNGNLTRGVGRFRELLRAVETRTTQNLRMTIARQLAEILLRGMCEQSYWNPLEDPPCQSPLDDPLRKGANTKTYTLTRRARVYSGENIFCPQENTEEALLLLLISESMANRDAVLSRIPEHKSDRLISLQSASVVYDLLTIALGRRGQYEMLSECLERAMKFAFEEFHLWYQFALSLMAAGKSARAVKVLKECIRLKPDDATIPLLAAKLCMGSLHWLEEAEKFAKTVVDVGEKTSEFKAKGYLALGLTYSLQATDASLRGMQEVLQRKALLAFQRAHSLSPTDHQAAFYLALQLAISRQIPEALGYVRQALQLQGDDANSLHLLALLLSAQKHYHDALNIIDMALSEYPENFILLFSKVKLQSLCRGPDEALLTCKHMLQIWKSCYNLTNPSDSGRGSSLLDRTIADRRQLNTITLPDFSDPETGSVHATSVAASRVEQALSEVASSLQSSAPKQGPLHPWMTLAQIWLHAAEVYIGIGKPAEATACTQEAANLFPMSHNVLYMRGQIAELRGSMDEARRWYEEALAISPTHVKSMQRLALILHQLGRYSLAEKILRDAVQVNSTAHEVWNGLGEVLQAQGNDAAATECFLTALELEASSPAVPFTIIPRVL

PI4KA [6] = target: T2, PI4KA (UniProt P42356 1-2102); test: SEC
[7] = target: PI4KA-TTC7A-FAM126A (1–308) complex (UniProt P42356;Q9ULT0;Q9BYI3); test: BLI
[8] = target: PI4KA-TTC7B-FAM126A (1–308) complex (UniProt P42356;Q86TV6;Q9BYI3); test: BLI
PI4KA [9] = target: T2, PI4KA; test: cryo-EM structure

B1: FAM126A (1–308) (from the Sf9 complexes) (domain or fragment)
chain: MFTSEKGVVEEWLSEFKTLPETSLPNYATNLKDKSSLVSSLYKVIQEPQSELLEPVCHQLFEFYRSGEEQLLQFTLQFLPELIWCYLAVSASRNVHSSGCIEALLLGVYNLEIVDKQGHTKVLSFTIPSLSKPSVYHEPSSIGSMALTESALSQHGLSKVVYSGPHPQREMLTAQNRFEVLTFLLLCYNAALTYMPSVSLQSLCQICSRICVCGYPRQHVRKYKGISSRIPVSSGFMVQMLTGIYFAFYNGEWDLAQKALDDIIYRAQLELYPEPLLVANAIKASLPHGPMKSNKEGTRCIQVEITPT
binding result (TTC7A): binds

B3: FAM126B (1–308) (from the E. coli dimer) (domain or fragment)
chain: MLGTDRCVVEEWLSEFKALPDTQITSYAATLHRKKTLVPALYKVIQDSNNELLEPVCHQLFELYRSSEVRLKRFTLQFLPELMWVYLRLTVSRDRQSNGCIEALLLGIYNLEIADKDGNNKVLSFTIPSLSKPSIYHEPSTIGSMALTEGALCQHDLIRVVYSDLHPQRETFTAQNRFEVLSFLMLCYNSAIVYMPASSYQSLCRMGSRVCVSGFPRQHEKHWKELCGRIVLDPEFMVQLLTGVYYAMYNGQWDLGQEVLDDIIYRAQLELFSQPLLVANAMKNSLPFDAPDSTQEGQKVLKVEVTPT
binding result [5]: binds

B4: FAM126B (1–308) (from the Sf9 dimer) (domain or fragment)
chain: MLGTDRCVVEEWLSEFKALPDTQITSYAATLHRKKTLVPALYKVIQDSNNELLEPVCHQLFELYRSSEVRLKRFTLQFLPELMWVYLRLTVSRDRQSNGCIEALLLGIYNLEIADKDGNNKVLSFTIPSLSKPSIYHEPSTIGSMALTEGALCQHDLIRVVYSDLHPQRETFTAQNRFEVLSFLMLCYNSAIVYMPASSYQSLCRMGSRVCVSGFPRQHEKHWKELCGRIVLDPEFMVQLLTGVYYAMYNGQWDLGQEVLDDIIYRAQLELFSQPLLVANAMKNSLPFDAPDSTQEGQKVLKVEVTPT
binding result (TTC7A): binds

Binder: B5
binding result (PI4KA [6]): binds

B7: TTC7B (from the Sf9 PI4KA complex) (natural protein)
chain: MATKKAGSRLETEIERCRSECQWERIPELVKQLSAKLIANDDMAELLLGESKLEQYLKEHPLRQGASPRGPKPQLTEVRKHLTAALDRGNLKSEFLQESNLIMAKLNYVEGDYKEALNIYARVGLDDLPLTAVPPYRLRVIAEAYATKGLCLEKLPISSSTSNLHVDREQDVITCYEKAGDIALLYLQEIERVILSNIQNRSPKPGPAPHDQELGFFLETGLQRAHVLYFKNGNLTRGVGRFRELLRAVETRTTQNLRMTIARQLAEILLRGMCEQSYWNPLEDPPCQSPLDDPLRKGANTKTYTLTRRARVYSGENIFCPQENTEEALLLLLISESMANRDAVLSRIPEHKSDRLISLQSASVVYDLLTIALGRRGQYEMLSECLERAMKFAFEEFHLWYQFALSLMAAGKSARAVKVLKECIRLKPDDATIPLLAAKLCMGSLHWLEEAEKFAKTVVDVGEKTSEFKAKGYLALGLTYSLQATDASLRGMQEVLQRKALLAFQRAHSLSPTDHQAAFYLALQLAISRQIPEALGYVRQALQLQGDDANSLHLLALLLSAQKHYHDALNIIDMALSEYPENFILLFSKVKLQSLCRGPDEALLTCKHMLQIWKSCYNLTNPSDSGRGSSLLDRTIADRRQLNTITLPDFSDPETGSVHATSVAASRVEQALSEVASSLQSSAPKQGPLHPWMTLAQIWLHAAEVYIGIGKPAEATACTQEAANLFPMSHNVLYMRGQIAELRGSMDEARRWYEEALAISPTHVKSMQRLALILHQLGRYSLAEKILRDAVQVNSTAHEVWNGLGEVLQAQGNDAAATECFLTALELEASSPAVPFTIIPRVL
binding result (PI4KA [9]): binds

Results, then the binder that gave them:

Kd [1]: ~300 pM | Kd [2]: ~300 pM | binding result [3]: binds | binding result [4]: binds
B2: His-tagged MBP-EFR3B (716–787) (domain or fragment)
chain: VPAEEITYETLKKAIVDSVAVEEQERERRRQVVEKFQKAPFEEIAAHCGARASLLQSKLNQIFEITIRPPPS

Kd [7]: 340 ± 130 pM | Kd [1]: 41 ± 25 pM | Kd [2]: ~300 pM | Kd [3]: ~300 pM | Kd [4]: ~300 pM | Kd [8]: 43 ± 14 pM
B6: His-tagged MBP-EFR3A (721–791) (domain or fragment)
chain: SNTEEITFEALKKAIDTSGMEEQEKEKRRLVIEKFQKAPFEEIAAQCESKANLLHDRLAQILELTIRPPPS

— PMC12747262 (bioRxiv, 2025)
